± gives the standard error. This sample holds only a part of the variants without activity.
B1: glmS ribozyme (parent)
chain: AUAAAAGCGCCAGAACUACAGAAAUGUAGUUGACGAGGAGGAGGUUUAUCGAAUUUUCGGCGGAUGCCUCCAAA

Assays:
Conditions in all cases: with glucosamine-6-phosphate
[1] = variants of: B1; assay: self-cleavage kobs at 40 uM GlcN6P; higher = faster cleavage; RNA array
How it was run: (§1)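 Weighted Michaelis–Menten fits across concentrations supplied kcat and KM, based on kobs from one- or two-exponential decay fits to normalised per-tile medians. The data came from barcoded ribozyme variants transcribed in situ by E. coli RNA polymerase on sequenced MiSeq chips and tracked at 37 °C by a hybridised Cy3 probe. Glucosamine-6-phosphate (40 μM to 10 mM) in HEPES/KCl/Mg(OAc)2 buffer was flowed in.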

[2] = variants of: B1; assay: self-cleavage kobs at 640 uM GlcN6P; higher = faster cleavage; RNA array
How it was run: as §1

[3] = variants of: B1; assay: self-cleavage kobs at 2500 uM GlcN6P; higher = faster cleavage; RNA array
How it was run: as §1

[4] = variants of: B1; assay: self-cleavage kobs at 10000 uM GlcN6P; higher = faster cleavage; RNA array
How it was run: as §1

[5] = variants of: B1; assay: self-cleavage kobs at 160 uM GlcN6P; higher = faster cleavage; RNA array
How it was run: as §1

Variant | self-cleavage kobs at 40 uM GlcN6P [1] [s⁻¹] | self-cleavage kobs at 640 uM GlcN6P [2] [s⁻¹] | self-cleavage kobs at 2500 uM GlcN6P [3] [s⁻¹] | self-cleavage kobs at 10000 uM GlcN6P [4] [s⁻¹] | self-cleavage kobs at 160 uM GlcN6P [5] [s⁻¹]
C8U U55C | < 1e-05 | < 1e-05 | < 1e-05 | < 1e-05 | 
C8U U55A C58A | < 1e-05 | < 1e-05 |  | < 1e-05 | 
C11A A53U U57G C71A | 0.000108 ± 2.7e-05 | 0.000248 ± 7.4e-05 | 0.000141 ± 6.7e-05 | 9.23e-05 ± 2.2e-05 | 
C10U G62U | < 1e-05 | < 1e-05 | < 1e-05 | < 1e-05 | < 1e-05
G9U A33C A36C U46C C68G | < 1e-05 |  |  | < 1e-05 | 
C10G G38C U69G | < 1e-05 | < 1e-05 |  |  | 
G9U A15U G41A U55A G60A | < 1e-05 |  |  | < 1e-05 | 
C10G G51C C58A | < 1e-05 | < 1e-05 |  | < 1e-05 | 
C10A C11G | < 1e-05 | < 1e-05 |  |  | < 1e-05
G9U U31G G32C G62A | < 1e-05 |  |  |  | 
C10U U31C G66U | < 1e-05 |  |  | < 1e-05 | < 1e-05
C10A G38U G40A | < 1e-05 | < 1e-05 | < 1e-05 | < 1e-05 | < 1e-05
G9A G41U | < 1e-05 | < 1e-05 | < 1e-05 |  | < 1e-05
C10U C11U A64G U65A | < 1e-05 |  |  |  | 
C10U G38U G41A | < 1e-05 |  |  |  | 
G9A C68G | < 1e-05 | < 1e-05 | < 1e-05 | < 1e-05 | < 1e-05
G9U G13C | < 1e-05 | < 1e-05 |  | < 1e-05 | < 1e-05
G9U A33U A53U C61G | < 1e-05 |  |  |  | 
G9C G63C | < 1e-05 | < 1e-05 | < 1e-05 |  | < 1e-05
C10U G40U A48U | < 1e-05 | < 1e-05 |  | < 1e-05 | 
C10U G37C G44U U65C | < 1e-05 | < 1e-05 | < 1e-05 |  | < 1e-05
C10G C50G | 5.37e-05 ± 1.8e-05 | 0.00026 ± 4.4e-05 | 9.17e-05 ± 2.1e-05 | 4.6e-05 ± 1.1e-05 | 0.000187 ± 3.5e-05
C10G A53C A64G | < 1e-05 | < 1e-05 | < 1e-05 | < 1e-05 | < 1e-05

Variant | self-cleavage kobs at 40 uM GlcN6P [1] [s⁻¹] | self-cleavage kobs at 640 uM GlcN6P [2] [s⁻¹] | self-cleavage kobs at 2500 uM GlcN6P [3] [s⁻¹] | self-cleavage kobs at 10000 uM GlcN6P [4] [s⁻¹] | self-cleavage kobs at 160 uM GlcN6P [5] [s⁻¹]
C10G C16G G40U | < 1e-05 |  | < 1e-05 |  | 
C10A G32C G41A | < 1e-05 |  |  |  | 
G9A A14G G32U U65A | < 1e-05 |  | < 1e-05 | < 1e-05 | 
C10G A42G | < 1e-05 | < 1e-05 |  |  | < 1e-05
C10G A42C | < 1e-05 |  |  |  | 
C10U U65C | < 1e-05 |  |  | < 1e-05 | 
C10G U47A | < 1e-05 | < 1e-05 |  |  | < 1e-05
C10G U47G | < 1e-05 |  |  | < 1e-05 | 
C10G U30G G40U | < 1e-05 |  |  |  | 
C10G G43A G62U | < 1e-05 | < 1e-05 |  |  | 
C10G G35A | < 1e-05 | < 1e-05 |  |  | < 1e-05
C10U C11G G43C G59A | < 1e-05 |  | < 1e-05 |  | < 1e-05
G9C A15G C50G G59C C70G | 0.00011 ± 3.6e-05 |  |  | 0.000264 ± 5.3e-05 | 
C10G G32C U57A | < 1e-05 |  |  |  | 
C10A A33C A64C | < 1e-05 |  | < 1e-05 | < 1e-05 | 
G9A A48G | < 1e-05 | < 1e-05 | < 1e-05 | < 1e-05 | 
G9U C16G | < 1e-05 |  | < 1e-05 |  | 
C10A A33U | < 1e-05 |  |  | < 1e-05 | 
G9U A15C G44C U47C | < 1e-05 |  | < 1e-05 | < 1e-05 | 
G9A A14C G44U U47C | < 1e-05 |  |  |  | 
G9U U31G | < 1e-05 | < 1e-05 | < 1e-05 | < 1e-05 | < 1e-05
C10G G41C | < 1e-05 | < 1e-05 | < 1e-05 | < 1e-05 | < 1e-05
C10U U45G G51U A64U | < 1e-05 |  |  | < 1e-05 | 
